Results as given in patent US20130344070A1 (SORRENTO THERAPEUTICS, published 2013).

Tests used:
[1] = target: T1, human CCR2 (CC-Chemokine Receptor 2) (human, UniProt P41597 1-374); assay: cell-based or functional assay
[2] = target: T1, human CCR2 (CC-Chemokine Receptor 2); assay: flow cytometry on CHO-huCCR2 cells, PE anti-human IgG
Method: (§1) The data in FIG. 1 illustrates in vitro data for cellular binding EC₅₀ measurements. […] In this example, CHO-CCR2 cells were lifted from culture flasks using non-enzymatic Cell Dissociation Buffer—PBS based (Life Technologies #13151-014). Cells were resuspended in FACS Buffer (2% Fetal Bovine Serum in PBS) at 1×10⁶ cells/ml and 100 μl (1×10⁵ cells) were aliquoted into the wells of a 96-well plate. Plated cells were spun down and the supernatant discarded. Cells were resuspended in 50 μl FACS Buffer containing the indicated concentrations of CCR2 D1 IgG in triplicate (FIG. 1). Plates were incubated for 1 hr at 4° C., then washed 1× with FACS Buffer. Cells were resuspended in 50 μl goat anti-human IgG (γ-chain specific)-PE conjugated secondary antibody (Southern Biotech #2040-09) diluted 1:500 in FACS Buffer. Cells were further incubated for 30 min at 4° C. and then washed 1× with FACS Buffer. The cells were resuspended in a final volume of 25 μl FACS Buffer and analyzed using the Intellicyt Flow Cytometer. Median fluorescence in the FL-2H channel was determined using FlowJo software and EC₅₀ value was determined by plotting the data in GraphPad Prism and analyzing using a variable slope non-linear regression.

murine CCR2 [3] = target: T2, murine CCR2 (murine, UniProt P51683 1-373); assay: flow cytometry on murine CCR2-expressing cells (FIG. 2)
T2 construct: whole, on cells; also called mouse CCR2; murine CCR2-expressing cells (WEHI 274.1)
T2 sequence (P51683 whole entry): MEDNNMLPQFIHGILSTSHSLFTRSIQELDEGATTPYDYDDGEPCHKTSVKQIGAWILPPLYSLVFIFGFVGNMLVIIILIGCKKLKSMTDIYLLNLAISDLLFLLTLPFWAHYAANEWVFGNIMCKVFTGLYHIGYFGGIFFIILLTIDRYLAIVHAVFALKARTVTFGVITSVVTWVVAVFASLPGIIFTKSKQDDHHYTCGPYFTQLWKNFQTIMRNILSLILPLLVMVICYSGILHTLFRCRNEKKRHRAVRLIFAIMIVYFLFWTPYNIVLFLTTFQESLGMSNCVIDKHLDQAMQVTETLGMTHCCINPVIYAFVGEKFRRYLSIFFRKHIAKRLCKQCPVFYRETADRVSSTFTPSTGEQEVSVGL

murine CCR2 [4] = target: T2, murine CCR2; assay: cell-based or functional assay
murine CCR2 [5] = target: T2, murine CCR2; assay: flow cytometry on WEHI 274.1 cells (murine CCR2), PE anti-human IgG
Method: In this example, WEHI 274.1 cells were resuspended in FACS Buffer (2% Fetal Bovine Serum in PBS) at 1×10⁶ cells and […] of cell suspension was aliquoted into the wells of a 96-well plate. Plated cells were spun down and the supernatant discarded. Cells were resuspended in 30 μl FACS Buffer containing serially diluted anti-CCR2 IgGs in triplicate. Plates were incubated for 1 hr at 4° C., then washed 2× with FACS Buffer. Cells were resuspended in 50 μl goat anti-human IgG (γ-chain specific)-PE conjugated secondary antibody (Southern Biotech #2040-09) diluted 1:500 in FACS Buffer, incubated for 30 min at 4° C. and then washed 1× with FACS Buffer. The cells were resuspended in a final volume of 30 μl FACS Buffer and analyzed using the Intellicyt Flow Cytometer. Median fluorescence in the FL-2H channel was determined using FlowJo software and EC₅₀ values were determined by plotting the data in GraphPad Prism and analyzed using a variable slope non-linear regression.

[6] = target: T1, human CCR2 (CC-Chemokine Receptor 2); assay: cell-based or functional assay; remark: listed apart in the source
[7] = target: T1, human CCR2 (CC-Chemokine Receptor 2); assay: cell-based or functional assay; remark: listed apart in the source
[8] = target: T1, human CCR2 (CC-Chemokine Receptor 2); assay: flow cytometry on CHO-CCR2 cells (FIG. 1)
Method: as §1

murine CCR2 [9] = target: T2, murine CCR2; assay: cell-based or functional assay; remark: listed apart in the source
[10] = target: T1, human CCR2 (CC-Chemokine Receptor 2); assay: cell-based or functional assay; remark: listed apart in the source

T1 sequence (P41597 whole entry): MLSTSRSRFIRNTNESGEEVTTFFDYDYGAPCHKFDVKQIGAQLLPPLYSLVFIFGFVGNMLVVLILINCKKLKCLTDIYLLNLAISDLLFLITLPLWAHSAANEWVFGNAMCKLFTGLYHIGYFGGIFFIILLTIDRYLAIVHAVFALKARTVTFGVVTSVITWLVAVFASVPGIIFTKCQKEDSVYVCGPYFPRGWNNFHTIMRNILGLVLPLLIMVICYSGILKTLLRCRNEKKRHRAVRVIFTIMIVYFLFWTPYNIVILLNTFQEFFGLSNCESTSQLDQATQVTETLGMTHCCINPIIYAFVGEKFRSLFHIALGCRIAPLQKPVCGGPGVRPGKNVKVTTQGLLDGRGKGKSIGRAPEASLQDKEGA

IC50 on MCP-1 induced THP-1 cell migration [1]: 0.168 nM
IC50 on MCP-2 induced THP-1 cell migration [1]: 0.172 nM
IC50 on MCP-3 induced THP-1 cell migration [1]: 0.854 nM
IC50 on MCP-4 induced THP-1 cell migration [1]: 0.138 nM
IC50 on mouse MCP-5 induced THP-1 cell migration [1]: 0.19 nM
EC50 [2]: 0.17 nM
EC50 (murine CCR2 [3]): ~17 nM
IC50 in chemotaxis assay using mouse WEHI cells, ligand mouse MCP-1 (0.7 nM) (murine CCR2 [4]): 0.062 nM
EC50 (murine CCR2 [5]): 1.5 nM
IC50 in chemotaxis assay using human THP-1 cells, ligand MCP-1 (3 nM) [6]: 0.17 nM
IC50 in chemotaxis assay using human THP-1 cells, ligand MCP-2 (6.7 nM) [6]: 0.17 nM
IC50 in chemotaxis assay using human THP-1 cells, ligand MCP-3 (1.1 nM) [6]: 0.11 nM
IC50 in chemotaxis assay using human THP-1 cells, ligand MCP-4 (35 nM) [6]: 0.14 nM
IC50 in chemotaxis assay using human THP-1 cells, ligand MCP-5 (0.65 nM) [6]: 0.19 nM
IC50 in calcium flux assay using human THP-1 cells, ligand MCP-1 (2.5 nM) [7]: 0.18 nM
IC50 in calcium flux assay using human THP-1 cells, ligand MCP-3 (22 nM) [7]: 0.19 nM
IC50 in calcium flux assay using human THP-1 cells, ligand MCP-5 (0.43 nM) [7]: 0.28 nM
EC50 [8]: 0.168 nM
IC50 of D1 on mMCP-1 induced WEHI 274.1 cell migration (murine CCR2 [9]): 66 nM
IC50 of D1 on MCP-1 (1 nM) induced primary human monocyte migration, another donor [10]: 3.48 nM
IC50 of D1 on MCP-1 (1 nM) induced primary human monocyte migration, first donor [10]: 1.02 nM
IC50 of D1 on MCP-1 (3 nM) induced THP-1 cell migration [10]: 0.194 nM
IC50 of D1 on MCP-1 (10 nM) induced THP-1 calcium mobilization [10]: 4.7 nM
IC50 of D1 on MCP-1 (10 nM) induced primary human monocyte calcium mobilization [10]: 2.8 nM
B1: D1 (antibody, human IgG1, V domains shown)
VH: EVQLVQSGAEVKKPGASVKVSCKASGYTFTGYHMHWVRQAPGQGLEWMGWINPNSGVTKYAQKFQGRVTMTRDTSINTAYMELSRLRFDDTDVYYCATGGFGYWGEGTLVTVSS
VL: LPVLTQPPSVSKGLRQTATLTCTGNSNNVGNQGAAWLQQHQGQPPKLLSYRNHNRPSGVSERFSPSRSGDTSSLTITGLQPEDEADYYCLAWDSSLRAFVFGTGTKLTVL
notes: also called CCR2 D1 IgG; anti-CCR2 D1 antibody
